Reference: patent US20220135661A1 (University of Pennsylvania, published 2022)
Blank lines part the entries; values can stand above or below the binder they belong to.

Key:
[1] = biological target: T1, recombinant human preformed α-Synuclein fibrils (human, UniProt P37840 1-140); assay: cell-based or functional assay
[2] = biological target: recombinant mouse preformed α-Synuclein fibrils (mouse, UniProt O55042 1-140); assay: cell-based or functional assay
[3] = biological target: human α-Synuclein (form not stated) (human, UniProt P37840 1-140); assay: direct ELISA; human αSyn against mouse αSyn as reference
[4] = biological target: T1, recombinant human preformed α-Synuclein …; assay: sandwich ELISA, mAb coated, MJF-R1 reporter; human PFFs against human monomer as reference
Description: FIG. 1A is a pair of graphs depicting the affinity of mAb Syn9063.26.22 for human monomeric (top) and fibrillar (PFF) (bottom) α-Syn measured by sandwich ELISA. 384-well plates were coated with 0.3 μg of the indicated mAb. After blocking, these were incubated with various concentrations of α-Syn monomer or PFFs (expressed as monomer equivalent concentration) as indicated. MJF-R1 was used as a reporter antibody to determine affinity for each form of α-Syn. FIG. 1B is a pair of graphs depicting the affinity of mAb Syn9048.04.07 for human monomeric (top) and fibrillar (PFF) (bottom) α-Syn measured by sandwich ELISA. 384-well plates were coated with 0.3 μg of the indicated mAb. After blocking, these were incubated with various concentrations of α-Syn monomer or PFFs (expressed as monomer equivalent concentration) as indicated. MJF-R1 was used as a reporter antibody to determine affinity for each form of α-Syn. FIG. 1C is a pair of graphs depicting the affinity of mAb Syn9068.13.01 for human monomeric (top) and fibrillar (PFF) (bottom) α-Syn measured by sandwich ELISA. […] After blocking, these were incubated with various concentrations of α-Syn monomer or PFFs (expressed as monomer equivalent concentration) as indicated. […]
The affinity of three mAbs from the 9000 series for human monomeric and fibrillar (PFF) α-Syn was measured by sandwich ELISA. […]

Inhibition in neuron assay (Hu PFFs) [1]: > 95%
Inhibition in neuron assay (Ms PFFs) [2]: > 95%
Recognition of Hu vs. Ms αSyn (fold) [3]: 1.4 fold
Selective binding to PFFs (fold over monomer) [4]: 30 fold
B1: Syn9048.04.07 (antibody, IgG1, V domains shown)
VH: QVQLQQSGPELVKPGASVRISCKASGYTFTTFYLHWVKQRPGQGLEWIGWIYPVNVKIKYSERFKGKATLTADKSSSTAYMQLGSLTSEDSAVYFCVRGGRGLDYWGQGTTLTVSS
VL: NIMMTQSPSSLAVSAGEKVTMSCKSSQSVLYSSNQKNYLAWYQQKPGQSPKMLIYWASFRESGVPDRFTGSGSGTDFTLTISSVQAEDLAVYYCHQYLSLFTFGSGTKLEIK
notes: also called mAb Syn9048.04.07; MHC992

Inhibition in neuron assay (Hu PFFs) [1]: 85%
Inhibition in neuron assay (Ms PFFs) [2]: ~90%
Recognition of Hu vs. Ms αSyn (fold) [3]: 1 fold
B2: Syn9068.13.01 (antibody, IgG1, V domains shown)
VH: EVHLVESGGGLVQPKGSLKLSCAASGFTFNTYAMHWVRQAPGKGLEWVARIRNKSNNYATYYADSVKDRFTISRDDSQSMLFLQMDNLKTEDTAIYYCVRGGLSPFDYWGQGTTLTVSS
VL: QIVLTQSPAIMSASPGEKVTMTCSASSSVTYMHWYQQKSGTSPKRWIYDTSKLASGVPARFSGSGSGTSYSLTISSMEAEDAATYYCQQWSSNPPTFGGGTKLEIR
notes: also called mAb Syn9068.13.01; MHC993

Inhibition in neuron assay (Hu PFFs) [1]: 80%
Inhibition in neuron assay (Ms PFFs) [2]: 50%
Recognition of Hu vs. Ms αSyn (fold) [3]: 1.1 fold
Selective binding to PFFs (fold over monomer) [4]: 100 fold
B3: Syn9063.26.22 (antibody, IgG2b, V domains shown)
VH: QVQLKQSGPGLVQPSQSQSLTCTVSGFSLTSYGVHWVRQPLGKGLEWLGVIWSGGSTDYNAAFISRLSIRKDNSKSQVFFKMNSLQADDTAIYYCARTFTTSTSAWFAYWGQGTLVTVSA
VL: QIVLTQSPAIMSASPGEKVTMTCSASSSVSYMYWYQQKPGSSPRLLIYDTSKLASGVPVRFSGSGSGTSYSLTISRMEAEDAATYYCQQWRSYPPTFGAGTKLELK
notes: also called mAb Syn9063.26.22; MHC978
